These results are taken from PMC2821902 (Biochemistry, 2009).

Data set [1] has as its target Dynein light chain LC8 (wild type) (UniProt Q24117). Put plainly: NMR. The conditions noted are these: cited from earlier work.
Data set [2] deals with the molecule itself.
Data set [3] concerns the molecule itself. Kind of data set: NMR NZ-exchange spectroscopy.
Data set [4] deals with the molecule itself. Kind of data set: NMR HSQC peak intensities of monomer and dimer signals in slow exchange.
Data set [5] concerns the molecule itself. This is another data set of the same source.
Data set [6] concerns the molecule itself. Kind of data set: NMR NZ-exchange spectroscopy. This is another data set of the same source.

Residue numbers refer to the chain shown, from its start. Where two headings read alike, the source gives them in different places.

For orientation: KD means a measure of binding affinity in units of concentration. As for Dynein light chain LC8 (wild type), in data set [1] (pH high pH (limit (so in the source))), the KD is given as under 1 µM. Moreover, in data set [1] (pH), the pKa, His55 of LC8 (dimer) was under 4.5 pH units and the pKa, His55 of LC8 (monomer) was 6.5 pH units.

B1: LC8 Ser88Glu mutant (phosphomimetic) (natural protein)
chain: MSDRKAVIKNADMSEEMQQDAVDCATQALEKYNIEKDIAAYIKKEFDKKYNPTWHCIVGRNFGSYVTHETRHFIYFYLGQVAILLFKEG
As usually defined, the koff is a measure of how fast the partners let go of each other. Read a high koff as fast dissociation. By kon is commonly meant the rate constant with which the complex forms. What is called Kd is the equilibrium constant for the complex coming apart. Read a low Kd as a tighter complex. On to B1, for which, in data set [2], the “KD of the protonation state His55+/His55+, Glu88/Glu88 (from the model)” value worked out at 25000 µM; the “KD of the protonation state His55+/His55+, Glu88/Glu88− (from the model)” value worked out at 110000 µM; the “KD of the protonation state His55+/His55+, Glu88−/Glu88− (from the model)” value worked out at 1.8e+07 mM; the “KD of the protonation state His55/His55+, Glu88/Glu88 (from the model)” value was determined as 17 µM. In data set [2], the “KD of the protonation state His55/His55+, Glu88/Glu88− (from the model)” value was determined as 6800 µM; the “KD of the protonation state His55/His55+, Glu88−/Glu88− (from the model)” value stood at 12000 mM; the “KD of the protonation state His55/His55, Glu88/Glu88 (from the model)” value came to 0.071 µM; the “KD of the protonation state His55/His55, Glu88/Glu88− (from the model)” value is 28 µM. Moreover, in data set [3], the off-rate (koff) is 1.9 to 5.7 s⁻¹ and the kon was in the range of 1200 to 3000 M⁻¹ s⁻¹. In addition, in data set [4], binding was put at a Kd of 930 µM.

B2: wild-type dynein light chain LC8 (natural protein)
chain: B1 chain with E88S
B2: the “KD at neutral pH” value in data set [5] is under 0.1 µM. In addition, in data set [2], the “KD of the protonation state His55+/His55+ (from the model)” value amounted to 21000 µM, the “KD of the protonation state His55/His55 (from the model)” value was found to be 0.06 µM and the “KD of the protonation state His55/His55+ (from the model)” value is 14 µM. In data set [6], this molecule came in with a koff of 0.05 to 0.24 s⁻¹ and an association rate constant (kon) of 1000 to 3000 M⁻¹ s⁻¹.
